From patent US20040110684

Molecular target: synthetic peptides derived from the caveolin scaffolding domain (CSD)

B1: endothelial nitric oxide synthase (eNOS), endogenous, human umbilical vein endothelial cells (HUVECs) (protein)
chain: GNLKSVAQEPGPPCGLGLGLGLGLCGKQGPATPAPEPSRAPASLLPPAPEHSPPSSPLTQPPEGPKFPRVKNWEVGSITYDTLSAQAQQDGPCTPRRCLGSLVFPRKLQGRPSPGPPAPEQLLSQARDFINQYYSSIKRSGSQAHEQRLQEVEAEVAATGTYQLRESELVFGAKQAWRNAPRCVGRIQWGKLQVFDARDCRSAQEMFTYICNHIKYATNRGNLRSAITVFPQRCPGRGDFRIWNSQLVRYAGYRQQDGSVRGDPANVEITELCIQHGWTPGNGRFDVLPLLLQAPDDPPELFLLPPELVLEVPLEHPTLEWFAALGLRWYALPAVSNMLLEIGGLEFPAAPFSGWYMSTEIGTRNLCDPHRYNILEDVAVCMDLDTRTTSSLWKDKAAVEINVAVLHSYQLAKVTIVDHHAATASFMKHLENEQKARGGCPADWAWIVPPISGSLTPVFHQEMVNYFLSPAFRYQPDPWKGSAAKGTGITRKKTFKEVANAVKISASLMGTVMAKRVKATILYGSETGRAQSYAQQLGRLFRKAFDPRVLCMDEYDVVSLEHETLVLVVTSTFGNGDPPENGESFAAALMEMSGPYNSSPRPEQHKSYKIRFNSISCSDPLVSSWRRKRKESSNTDSAGALGTLRFCVFGLGSRAYPHFCAFARAVDTRLEELGGERLLQLGQGDELCGQEEAFRGWAQAAFQAACETFCVGEDAKAAARDIFSPKRSWKRQRYRLSAQAEGLQLLPGLIHVHRRKMFQATIRSVENLQSSKSTRATILVRLDTGGQEGLQYQPGDHIGVCPPNRPGLVEALLSRVEDPPAPTEPVAVEQLEKGSPGGPPPGWVRDPRLPPCTLRQALTFFLDITSPPSPQLLRLLSTLAEEPREQQELEALSQDPRRYEEWKWFRCPTLLEVLEQFPSVALPAPLLLTQLPLLQPRYYSVSSAPSTHPGEIHLTVAVLAYRTQDGLGPLHYGVCSTWLSQLKPGDPVPCFIRGAPSFRLPPDPSLPCILVGPGTGIAPFRGFWQERLHDIESKGLQPTPMTLVFGCRCSQLDHLYRDEVQNAQQRGVFGRVLTAFSREPDNPKTYVQDILRTELAAEVHRVLCLERGHMFVCGDVTMATNVLQTVQRILATEGDMELDEAGDVIGVLRDQQRYHEDIFGLTLRTQEVTSRIRTQSFSLQERQLRGAVPWAFDPPGSDTNSP
How did the “phosphorylation of eNOS (Ser1177) in atorvastatin-treated HUVECs, immunoblot” value turn out when B1 was run?
Its value is “blocked the phosphorylation of eNOS”.
